For test [1], the target named is Truncated TBEV C protein C_(18-93), containing residues 18-93, Kuutsalo-14 strain (tick-borne encephalitis virus (TBEV-Eu), strain Kuutsalo-14). In words: SEC. (Size exclusion chromatography separates by hydrodynamic size, large species first.)
Test [2] concerns the target Full-length TBEV C protein (residues 1-96), Kuutsalo-14 strain (tick-borne encephalitis virus (TBEV-Eu), strain Kuutsalo-14). In words: SEC.

Consider 2 substances from PMC9970071.

With “Truncated TBEV C protein C_(18-93), containing residues 18-93, Kuutsalo-14 strain (domain or fragment)”, the stoichiometry N (usually the number of molecules, sites or subunits per partner or assembly) in test [1] was found to be 2.
The substance “Full-length TBEV C protein (residues 1-96), Kuutsalo-14 strain (natural protein)” gave a stoichiometry N in test [2] of 2.
